# B1: HfsH (Caulobacter vibrioides CB15) (protein)
# chain: MPMEFEKVDAYEPDRSLKGKLRRRLIRLAHRRPAKVALERPMVSFSFDDAPATACEAGARALEARGLRGTYYFAAGLTGRDGPMGRYATGEDARRLHEAGHEIACHTYSHLDCGQSSQTETLADVDRNAESLAAWGAGDPVSFAYPYGDVAAPAKTALSGRFKTLRALHHGLITDGADLNQTPAVGIEGEDGETVAKAWLDKAKARKAWLILYTHDVAGQPSQWGCTTEALERLIDRALADGFDVVTVAEGSRRIGL
# Substrate: CC(=O)Oc1ccc([N+](=O)[O-])cc1
# Assay: purified protein
# Format: biochemical, Caulobacter vibrioides
# Details: 40 mM phosphate buffer pH 7.4, 37 °C, 0.2 μM HfsH
protein,measurement,value
B1,Km,11.74 mM

# From PMC3633684
